From US20220213216A1 (SOUND BIOPHARMACEUTICALS, published 2022) come the findings set out here.

In assay [1] the target is T1, human Her2 with an Fc tag (AcroBiosystem, catalog number HE2-H5253) (human, UniProt P04626 23-652).
T1 construct: extracellular domain; Bought protein, loaded on Protein A biosensors; also called Her2 antigen; extracellular region of the Her2 protein; not shown: Fc tag of the bought protein, not described
As to the kind of experiment: BLI (Octet QKe), Her2-Fc on Protein A biosensors, 1:1 fit. The method, then:
(§1) Affinity assay: The OctetQKe instrument (Pall Life Sciences) was used to determine the affinity of the anti-Her2 antibody to the extracellular region of the Her2 protein. Briefly, human Her2 with an Fc tag in PBST (AcroBiosystem, catalog number HE2-H5253) was loaded onto the surface of ProteinA Capture Biosensors (ProA). Immobilization level was set at […]. Then a 60-second biosensor baseline step was performed, and the antigen/antibody association was analyzed for 180 seconds on the biosensor to test the antibody/antigen. The test molecules were then applied at a two-fold concentration gradient. The data analysis software version 8.2 (PALL/ForteBio) was used to evaluate the Octet data, and the full-fit 1:1 modal was used to determine the Kd value.
(§2) In order to detect the binding ability of the antibodies to Her2 antigen, biofilm interference technology (BLI) was used to analyze the interaction between the antibodies and Her2 antigen.
For orientation: In BLI a coated tip is dipped into the sample, and binding shifts an interference pattern.

The target of assay [2] is T1, human Her2 with an Fc tag …. As to the kind of experiment: BLI (OctetQKe); Fc-tagged human Her2 loaded on Protein A biosensors, antibody in two-fold dilutions, 1:1 fit. Here is the method:
as §1

Assay [3] has the same target. As to the kind of experiment: BLI (OctetQKe); Fc-tagged human Her2 loaded on Protein A biosensors, antibody in two-fold dilutions, 1:1 fit; column head Kdis. Here is the method: as §1
Assay [4] has the same target. As to the kind of experiment: BLI (Octet QKe), Her2-Fc on Protein A biosensors, 1:1 fit; single-site bivalent Bi-Bs. The method, then:
as §1, §2

Assay [5] has the same target. As to the kind of experiment: BLI (Octet QKe), Her2-Fc on Protein A biosensors, 1:1 fit; Bp-Bs with dual Her2 binding sites. The method, then:
as §1, §2

B1: anti-Her2-VHH2-Fc (Fc fusion)
chain: QVQLQESGGGSVQAGGSLRLSCRASGFTFSSYAMSWVRQPPGKELEWVSAIWGGGDSQHYADSVKGRFTISRDNAKNTLYLQLNSLKTEDTGMYYCVKDRGPFFSGSKYVLGAADRGQGTQVTVSS
notes: Called a single-site bivalent antibody; 2; not shown: Fc and any linker are not described
With B1, the Kd in assay [1] was found to be 3.02 nM. In assay [2], this molecule returned an on-rate (kon) of 29800 M⁻¹ s⁻¹. The same molecule returned a koff in assay [3] of 8.99e-05 s⁻¹.

B2: bivalent anti-Her2 bispecific antibody Bi-Bs (anti-CD3 UCHT1 Fab with anti-Her2 VHH1 on both CL and CH1) (bispecific antibody)
chain 1: EIVLTQSPATLSLSPGERATLSCSASSGVNYMHWYQQKPGQAPRRWIYDTSKLASGVPARFSGSGSGTSYSLTISSLEPEDFAVYYCHQRGGSYTFGGGTKLEIKRKLTVAAPSVFIFPPSDEQLKSGTASVVCLLNNFYPREAKVQWKVDNALQSGNSQESVTEQDSKDSTYSLSSTLTLSKADYEKHKVYACEVTHQGLSSPVTKSFNRGECGSQVQLVQSGGGLVQAGGSLRLSCAASGRTFSSYAMAWFRQAPGKEREFVAAISWSGANIYVADSVKGRFTISRDNAKDTVYLQMNSLKPEDTAVYYCAVKLGFAPVEERQYDYWGQGTQVTVSS
chain 2: QVQLVQSGAEVKKPGASVKVSCKTSGYTFTSNWMHWVRQAPGQGLEWMGEIDPSDSYTNYNQKFKGRVTITVDKSASTAYMELSSLRSEDTAVYYCARGSNPYYYAMDYWGQGTLVTVSSKLASTKGPSVFPLAPSSKSTSGGTAALGCLVKDYFPEPVTVSWNSGALTSGVHTFPAVLQSSGLYSLSSVVTVPSSSLGTQTYICNVNHKPSNTKVDKKVGSGGGGSGGGGSGGGGSQVQLVQSGGGLVQAGGSLRLSCAASGRTFSSYAMAWFRQAPGKEREFVAAISWSGANIYVADSVKGRFTISRDNAKDTVYLQMNSLKPEDTAVYYCAVKLGFAPVEERQYDYWGQGTQVTVSS
notes: 3 is VL-CL-VHH1, so the heavy and light labels are probably swapped in this sentence; Expressed in E. coli and purified on Ni Sepharose
For the molecule B2, in assay [4], the Kd worked out at 3.06 nM. The same molecule displayed a kon in assay [2] of 163000 M⁻¹ s⁻¹. In assay [3], this molecule had a koff of 0.000497 s⁻¹.

B3: bispecific antibody Bp-Bs with dual Her2 binding sites (anti-CD3 UCHT1 Fab with anti-Her2 VHH1 on CL and anti-Her2 VHH2 on CH1) (bispecific antibody)
light: B2 chain 1
heavy: QVQLVQSGAEVKKPGASVKVSCKTSGYTFTSNWMHWVRQAPGQGLEWMGEIDPSDSYTNYNQKFKGRVTITVDKSASTAYMELSSLRSEDTAVYYCARGSNPYYYAMDYWGQGTLVTVSSASTKGPSVFPLAPSSKSTSGGTAALGCLVKDYFPEPVTVSWNSGALTSGVHTFPAVLQSSGLYSLSSVVTVPSSSLGTQTYICNVNHKPSNTKVDKKVEPKSCDKTHTCAAGGGGSGGGGSGGGGSQVQLQESGGGSVQAGGSLRLSCRASGFTFSSYAMSWVRQPPGKELEWVSAIWGGGDSQHYADSVKGRFTISRDNAKNTLYLQLNSLKTEDTGMYYCVKDRGPFFSGSKYVLGAADRGQGTQVTVSS
notes: VHHs are linked by (GGGGS)3; Expressed in E. coli and purified on Ni Sepharose; About 79 kDa
Molecule B3 gave a Kd in assay [5] of 0.109 nM. Besides, in assay [2], the kon came out at 215000 M⁻¹ s⁻¹. Moreover, the koff in assay [3] worked out at 2.33e-05 s⁻¹.

B4: anti-Her2-VHH1-Fc (Fc fusion)
chain: QVQLVQSGGGLVQAGGSLRLSCAASGRTFSSYAMAWFRQAPGKEREFVAAISWSGANIYVADSVKGRFTISRDNAKDTVYLQMNSLKPEDTAVYYCAVKLGFAPVEERQYDYWGQGTQVTVSS
notes: Called a single-site bivalent antibody; 1; also called single-site bivalent antibody anti-Her2 VHH1-Fc; not shown: Fc and any linker are not described
For B4, in assay [1], the Kd was 8.85 nM. Moreover, the on-rate constant (kon) in assay [2] worked out at 298000 M⁻¹ s⁻¹. The koff in assay [3] was determined as 0.00263 s⁻¹.

By kon is commonly meant the rate constant with which the complex forms. A low value points to slower complex formation. In general, koff refers to the rate constant with which the complex falls apart. High values mean fast dissociation, low ones slow dissociation.
